Usually pKd stands for the negative decadic logarithm of the Kd, by convention in mol/L.

These results are taken from paper PMC8913300, “Two distinct classes of cochaperones compete for the EEVD motif in heat shock protein 70 to tune its chaperone activities” (The Journal of Biological Chemistry, 2022).

For test [1], the target named is Hsp70 EEVD motif (Homo sapiens) (UniProt P0DMV8). The conditions noted are these: cited from earlier work.
Test [2] has as its target Hsp72 tracer FITC-Ahx-…. Briefly: fluorescence polarisation; saturation binding; 20 nM fluorescent Hsp72 tracer, J-domain protein titrated in 2x dilutions (110-0.013 μM told for DnaJB4); 50 mM Tris, 15 mM NaCl, 1 mM DTT, 0.01% Triton X-100, pH 8.0; 30 min at room temperature. (In general: Fluorescence polarisation rises when a labelled molecule tumbles more slowly, as on binding a larger partner.)

pKd: −log10 of the molar value.

Chain of Hsp70 EEVD motif (Homo sapiens) (P0DMV8 whole entry, looked up): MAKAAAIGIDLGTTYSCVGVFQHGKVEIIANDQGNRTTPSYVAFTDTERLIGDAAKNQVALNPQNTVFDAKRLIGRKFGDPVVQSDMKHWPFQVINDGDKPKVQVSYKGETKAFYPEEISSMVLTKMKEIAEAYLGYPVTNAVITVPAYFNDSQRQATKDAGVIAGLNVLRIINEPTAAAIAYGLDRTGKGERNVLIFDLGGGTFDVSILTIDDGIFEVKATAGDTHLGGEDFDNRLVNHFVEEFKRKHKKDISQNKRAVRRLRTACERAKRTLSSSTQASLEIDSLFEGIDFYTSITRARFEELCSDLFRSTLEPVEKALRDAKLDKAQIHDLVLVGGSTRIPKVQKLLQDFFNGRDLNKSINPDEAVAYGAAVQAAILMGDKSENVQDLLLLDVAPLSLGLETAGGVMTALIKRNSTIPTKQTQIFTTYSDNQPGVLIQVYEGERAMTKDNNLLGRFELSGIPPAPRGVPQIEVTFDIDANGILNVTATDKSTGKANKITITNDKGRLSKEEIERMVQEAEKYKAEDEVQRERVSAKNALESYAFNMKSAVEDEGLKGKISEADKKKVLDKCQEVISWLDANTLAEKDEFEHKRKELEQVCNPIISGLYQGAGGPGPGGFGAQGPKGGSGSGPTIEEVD
Chain of DnaJB1 CTD I (P25685 161-243): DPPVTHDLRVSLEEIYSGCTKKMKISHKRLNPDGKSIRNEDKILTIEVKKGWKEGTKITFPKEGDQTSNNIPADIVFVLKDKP

With DnaJB1 CTD I (from UniProt P25685), the pKd in test [1] is 4.82.

“DnaJB4 QPD mutant (from UniProt Q9UDY4 1-337) (natural protein)” showed a negative logarithm of the Kd (pKd) in test [2] of 5.61.
